This note sets out measurements from the supplement of paper PMC5998384.

Data set [1] relates to HeLa Kyoto. The data set can be described thus: solubility in G1/S (NP-40 vs SDS abundance) (log2 ratio); higher = more soluble. The following applies: cell cycle stage: G1/S.
Data set [2] deals with HeLa Kyoto. Description: melting temperature (median over replicates), in situ; higher = more thermally stable.
The test system of data set [3] is HeLa Kyoto. Description: thermal stability score vs G1/S (z-score of summed log2 fold changes over temperatures); higher = more thermally stable than in G1/S.
Data set [4] relates to HeLa Kyoto. The data set can be described thus: solubility change mitosis vs G1/S (difference of NP-40 vs SDS log2 ratios) (log2 ratio difference); higher = more soluble in mitosis.
Setting [5] is: cell cycle stage: early G1 (4.5 h after nocodazole release).
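Wherever melting temperature (median over replicates), in situ is given: HeLa Kyoto cells synchronized by double thymidine or nocodazole block, proteins quantified by TMT10plex mass spectrometry, three independent biological replicates.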
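Wherever solubility change mitosis vs G1/S (difference of NP-40 vs SDS log2 ratios) is given: synchronized HeLa Kyoto cells (double thymidine block for G1/S, nocodazole release for mitosis), protein amounts in NP-40 versus SDS lysates quantified by mass spectrometry, three biological replicates.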
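Wherever solubility in G1/S (NP-40 vs SDS abundance) is given: HeLa Kyoto cells arrested at G1/S by double thymidine block, proteins quantified by TMT10plex mass spectrometry in mild NP-40 versus SDS extracts, three biological replicates.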
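Wherever thermal stability score vs G1/S (z-score of summed log2 fold changes over temperatures) is given: synchronized HeLa Kyoto cells, proteins quantified by TMT10plex mass spectrometry, three biological replicates, mitosis taken 0.5 h after nocodazole release, G1/S directly after double thymidine block.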

With “MFWKFDLHSSSHIDTLLEREDVTLKELMDEEDVLQECKAQNRKLIEFLLKAECLEDLVSFIIEEPPQDMDEKIRYKYPNISCELLTSDVSQMNDRLGEDESLLMKLYSFLLNDSPLNPLLASFFSKVLSILISRKPEQIVDFLKKKHDFVDLIIKHIGTSAIMDLLLRLLTCIEPPQPRQDVLNWLNEEKIIQRLVEIVHPSQEEDRHSNASQSLCEIVRLSRDQMLQIQNSTEPDPLLATLEKQEIIEQLLSNIFHKEKNESAIVSAIQILLTLLETRRPTFEGHIEICPPGMSHSACSVNKSVLEAIRGRLGSFHELLLEPPKKSVMKTTWGVLDPPVGNTRLNVIRLISSLLQTNTSSINGDLMELNSIGVILNMFFKYTWNNFLHTQVEICIALILASPFENTENATITDQDSTGDNLLLKHLFQKCQLIERILEAWEMNEKKQAEGGRRHGYMGHLTRIANCIVHSTDKGPNSALVQQLIKDLPDEVRERWETFCTSSLGETNKRNTVDLVTTCHIHSSSDDEIDFKETGFSQDSSLQQAFSDYQMQQMTSNFIDQFGFNDEKFADQDDIGNVSFDRVSDINFTLNTNESGNIALFEACCKERIQQFDDGGSDEEDIWEEKHIAFTPESQRRSSSGSTDSEESTDSEEEDGAKQDLFEPSSANTEDKMEVDLSEPPNWSANFDVPMETTHGAPLDSVGSDVWSTEEPMPTKETGWASFSEFTSSLSTKDSLRSNSPVEMETSTEPMDPLTPSAAALAVQPEAAGSVAMEASSDGEEDAESTDKVTETVMNGGMKETLSLTVDAKTETAVFKSEEGKLSTSQDAACKDAEECPETAEAKCAAPRPPSSSPEQRTGQPSAPGDTSVNGPV [PPP6R3]”, in the data set with HeLa Kyoto [1], the “solubility in G1/S (log2)” value is -0.236. Further, the results for the melting temperature with HeLa Kyoto [2] (cell cycle stage: G1/S) and in the data set on HeLa Kyoto [2] (cell cycle stage: mitosis) were 54.9 °C and 54.1 °C, respectively. Also, the thermal stability score in the data set on HeLa Kyoto [3] (setting [5]) is -1.86; with HeLa Kyoto [3] (cell cycle stage: mitosis) it was -1.84. Besides, the “solubility change mitosis (log2)” value in the data set on HeLa Kyoto [4] is -0.12.
With “MSLSSGASGGKGVDANPVETYDSGDEWDIGVGNLIIDLDADLEKDQQKLEMSGSKEVGIPAPNAVATLPDNIKFVTPVPGPQGKEGKSKSKRSKSGKDTSKPTPGTSLFTPSEGAASKKEVQGRSGDGANAGGLVAAIAPKGSEKAAKASRSVAGSKKEKENSSSKSKKERSEGVGTCSEKDPGVLQPVPLGGRGGQYDGSAGVDTGAVEPLGSIAIEPGAALNPLGTKPEPEEGENECRLLKKVKSEKMESPVSTPAVLPIHLLVPVVNNDISSPCEQIMVRTRSVGVNTCDVALATEPECLGPCEPGTSVNLEGIVWQETEDGMLVVNVTWRNKTYVGTLLDCTRHDWAPPRFCDSPTSDLEMRNGRGRGKRMRPNSNTPVNETATASDSKGTSNSSKTRAGANSKGRRGSQNSSEHRPPASSTSEDVKASPSSANKRKNKPLSDMELNSSSEDSKGSKRVRTNSMGSATGPLPGTKVEPTVLDRNCPSPVLIDCPHPNCNKKYKHINGLKYHQAHAHTDDDSKPEADGDSEYGEEPILHADLGSCNGASVSQKGSLSPARSATPKVRLVEPHSPSPSSKFSTKGLCKKKLSGEGDTDLGALSNDGSDDGPSVMDETSNDAFDSLERKCMEKEKCKKPSSLKPEKIPSKSLKSARPIAPAIPPQQIYTFQTATFTAASPGSSSGLTATVAQAMPNSPQLKPIQPKPTVMGEPFTVNPALTPAKDKKKKDKKKKESSKELESPLTPGKVCRAEEGKSPFRESSGDGMKMEGLLNGSSDPHQSRLASIKAEADKIYSFTDNAPSPSIGGSSRLENTTPTQPLTPLHVVTQNGAEASSVKTNSPAYSDISDAGEDGEGKVDSVKSKDAEQLVKEGAKKTLFPPQPQSKDSPYYQGFESYYSPSYAQSSPGALNPSSQAGVESQALKTKRDEEPESIEGKVKNDICEEKKPELSSSSQQPSVIQQRPNMYMQSLYYNQYAYVPPYGYSDQSYHTHLLSTNTAYRQQYEEQQKRQSLEQQQRGVDKKAEMGLKEREAALKEEWKQKPSIPPTLTKAPSLTDLVKSGPGKAKEPGADPAKSVIIPKLDDSSKLPGQAPEGLKVKLSDASHLSKEASEAKTGAECGRQAEMDPILWYRQEAEPRMWTYVYPAKYSDIKSEDERWKEERDRKLKEERSRSKDSVPKEDGKESTSSDCKLPTSEESRLGSKEPRPSVHVPVSSPLTQHQSYIPYMHGYSYSQSYDPNHPSYRSMPAVMMQNYPGSYLPSSYSFSPYGSKVSGGEDADKARASPSVTCKSSSESKALDILQQHASHYKSKSPTISDKTSQERDRGGCGVVGGGGSCSSVGGASGGERSVDRPRTSPSQRLMSTHHHHHHLGYSLLPAQYNLPYAAGLSSTAIVASQQGSTPSLYPPPRR [ZNF609]”, the “solubility in G1/S (log2)” value in the data set with HeLa Kyoto [1] stood at 0.0412. For the same substance, the melting temperature in the data set on HeLa Kyoto [2] (cell cycle stage: G1/S) turned out to be 49.9 °C; in the data set with HeLa Kyoto [2] (cell cycle stage: mitosis) it was 52.1 °C. Further, the thermal stability score in the data set on HeLa Kyoto [3] (setting [5]) is -1.11; in the data set with HeLa Kyoto [3] (cell cycle stage: mitosis), 2.18. In addition, the “solubility change mitosis (log2)” value in the data set on HeLa Kyoto [4] was 0.204.
For “MLCGRWRRCRRPPEEPPVAAQVAAQVAAPVALPSPPTPSDGGTKRPGLRALKKMGLTEDEDVRAMLRGSRLRKIRSRTWHKERLYRLQEDGLSVWFQRRIPRAPSQHIFFVQHIEAVREGHQSEGLRRFGGAFAPARCLTIAFKGRRKNLDLAAPTAEEAQRWVRGLTKLRARLDAMSQRERLDHWIHSYLHRADSNQDSKMSFKEIKSLLRMVNVDMNDMYAYLLFKECDHSNNDRLEGAEIEEFLRRLLKRPELEEIFHQYSGEDRVLSAPELLEFLEDQGEEGATLARAQQLIQTYELNETAKQHELMTLDGFMMYLLSPEGAALDNTHTCVFQDMNQPLAHYFISSSHNTYLTDSQIGGPSSTEAYVRAFAQGCRCVELDCWEGPGGEPVIYHGHTLTSKILFRDVVQAVRDHAFTLSPYPVILSLENHCGLEQQAAMARHLCTILGDMLVTQALDSPNPEELPSPEQLKGRVLVKGKKLPAARSEDGRALSDREEEEEDDEEEEEEVEAAAQRRLAKQISPELSALAVYCHATRLRTLHPAPNAPQPCQVSSLSERKAKKLIREAGNSFVRHNARQLTRVYPLGLRMNSANYSPQEMWNSGCQLVALNFQTPGYEMDLNAGRFLVNGQCGYVLKPACLRQPDSTFDPEYPGPPRTTLSIQVLTAQQLPKLNAEKPHSIVDPLVRIEIHGVPADCARQETDYVLNNGFNPRWGQTLQFQLRAPELALVRFVVEDYDATSPNDFVGQFTLPLSSLKQGYRHIHLLSKDGASLSPATLFIQIRIQRS [PLCD3]”, the “solubility in G1/S (log2)” value with HeLa Kyoto [1] is -0.344. The melting temperature with HeLa Kyoto [2] (cell cycle stage: G1/S) was 51.6 °C; with HeLa Kyoto [2] (cell cycle stage: mitosis), 48.9 °C. For the same substance, the thermal stability score in the data set with HeLa Kyoto [3] (setting [5]) amounted to 0.427; in the data set with HeLa Kyoto [3] (cell cycle stage: mitosis) it was 0.0629. Moreover, the “solubility change mitosis (log2)” value with HeLa Kyoto [4] is 0.0889.
YLPM1: the “solubility in G1/S (log2)” value in the data set on HeLa Kyoto [1] was -0.708. Moreover, the melting temperature with HeLa Kyoto [2] (cell cycle stage: G1/S) and with HeLa Kyoto [2] (cell cycle stage: mitosis) was 48.3 °C in each case. Moreover, the figures for the thermal stability score in the data set with HeLa Kyoto [3] (setting [5]) and in the data set with HeLa Kyoto [3] (cell cycle stage: mitosis) were 0.777 and 0.487, respectively. Further, the “solubility change mitosis (log2)” value in the data set with HeLa Kyoto [4] was 0.495.
Regarding “MPTVEELYRNYGILADATEQVGQHKDAYQVILDGVKGGTKEKRLAAQFIPKFFKHFPELADSAINAQLDLCEDEDVSIRRQAIKELPQFATGENLPRVADILTQLLQTDDSAEFNLVNNALLSIFKMDAKGTLGGLFSQILQGEDIVRERAIKFLSTKLKTLPDEVLTKEVEELILTESKKVLEDVTGEEFVLFMKILSGLKSLQTVSGRQQLVELVAEQADLEQTFNPSDPDCVDRLLQCTRQAVPLFSKNVHSTRFVTYFCEQVLPNLGTLTTPVEGLDIQLEVLKLLAEMSSFCGDMEKLETNLRKLFDKLLEYMPLPPEEAENGENAGNEEPKLQFSYVECLLYSFHQLGRKLPDFLTAKLNAEKLKDFKIRLQYFARGLQVYIRQLRLALQGKTGEALKTEENKIKVVALKITNNINVLIKDLFHIPPSYKSTVTLSWKPVQKVEIGQKRASEDTTSGSPPKKSSAGPKRDARQIYNPPSGKYSSNLGNFNYEQRGAFRGSRGGRGWGTRGNRSRGRLY [API5]”, the “solubility in G1/S (log2)” value in the data set with HeLa Kyoto [1] is 0.323. In addition, the melting temperature with HeLa Kyoto [2] (cell cycle stage: G1/S) amounted to 53.7 °C; in the data set on HeLa Kyoto [2] (cell cycle stage: mitosis), 52.8 °C. For the same substance, the thermal stability score with HeLa Kyoto [3] (setting [5]) stood at 1.42; in the data set on HeLa Kyoto [3] (cell cycle stage: mitosis), 1.11. The “solubility change mitosis (log2)” value in the data set with HeLa Kyoto [4] turned out to be 0.0442.
